This note sets out measurements from PMC10533329.

The target of this experiment is RGA5 HMA domain (rice (Oryza sativa)) (UniProt F7J0N2). The experiment is described as follows: SPR; Biacore […]) or 50 to 0 µM ([…]; HBS-EP+ buffer; 1:1 binding model, kinetic fit.

The term Kd denotes the constant that tells how readily two partners part at equilibrium.

Sequence of UniProt F7J0N2 (F7J0N2 997-1066): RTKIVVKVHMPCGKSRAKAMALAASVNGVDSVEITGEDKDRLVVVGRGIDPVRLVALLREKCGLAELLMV

With “AVR-Pia (purified) (from UniProt B9WZW9 1-85) (natural protein)”, the Kd is 26.8 µM. In other words, the double-digit micromolar range.
